Test results taken from patent US20210221899A1 (published 2021).

B1: can9L12VH_T28A (antibody, V domains shown)
VH: EVQLVESGGDLVKPGGSLRLSCVASGFAFSSHGMHWVRQSPGKGLQWVAVINSGGSSTYYTDAVKGRFTISRDNAKNTVYLQMNSLRAEDTAMYYCAKESVGGWEQLVGPHFDYWGQGTLVIVSS
VL: QSVLTQPTSVSGSLGQRVTISCSGSTNNIGILGASWYQLFPGKAPKLLVYGNGNRPSGVPDRFSGADSGDSVTLTITGLQAEDEADYYCQSFDTTLGAHVFGGGTHLTVL
B2: can9L12VL_D93A (antibody, V domains shown)
VH: EVQLVESGGDLVKPGGSLRLSCVASGFTFSSHGMHWVRQSPGKGLQWVAVINSGGSSTYYTDAVKGRFTISRDNAKNTVYLQMNSLRAEDTAMYYCAKESVGGWEQLVGPHFDYWGQGTLVIVSS
VL: QSVLTQPTSVSGSLGQRVTISCSGSTNNIGILGASWYQLFPGKAPKLLVYGNGNRPSGVPDRFSGADSGDSVTLTITGLQAEDEADYYCQSFATTLGAHVFGGGTHLTVL
B3: can9L12VL_F92A (antibody, V domains shown)
VH: EVQLVESGGDLVKPGGSLRLSCVASGFTFSSHGMHWVRQSPGKGLQWVAVINSGGSSTYYTDAVKGRFTISRDNAKNTVYLQMNSLRAEDTAMYYCAKESVGGWEQLVGPHFDYWGQGTLVIVSS
VL: QSVLTQPTSVSGSLGQRVTISCSGSTNNIGILGASWYQLFPGKAPKLLVYGNGNRPSGVPDRFSGADSGDSVTLTITGLQAEDEADYYCQSADTTLGAHVFGGGTHLTVL
B4: can9L12VH_V108A (antibody, V domains shown)
VH: EVQLVESGGDLVKPGGSLRLSCVASGFTFSSHGMHWVRQSPGKGLQWVAVINSGGSSTYYTDAVKGRFTISRDNAKNTVYLQMNSLRAEDTAMYYCAKESVGGWEQLAGPHFDYWGQGTLVIVSS
VL: QSVLTQPTSVSGSLGQRVTISCSGSTNNIGILGASWYQLFPGKAPKLLVYGNGNRPSGVPDRFSGADSGDSVTLTITGLQAEDEADYYCQSFDTTLGAHVFGGGTHLTVL
B5: can9L12VL_G97A (antibody, V domains shown)
VH: EVQLVESGGDLVKPGGSLRLSCVASGFTFSSHGMHWVRQSPGKGLQWVAVINSGGSSTYYTDAVKGRFTISRDNAKNTVYLQMNSLRAEDTAMYYCAKESVGGWEQLVGPHFDYWGQGTLVIVSS
VL: QSVLTQPTSVSGSLGQRVTISCSGSTNNIGILGASWYQLFPGKAPKLLVYGNGNRPSGVPDRFSGADSGDSVTLTITGLQAEDEADYYCQSFDTTLAAHVFGGGTHLTVL
B6: can9L12VH_V101A (antibody, V domains shown)
VH: EVQLVESGGDLVKPGGSLRLSCVASGFTFSSHGMHWVRQSPGKGLQWVAVINSGGSSTYYTDAVKGRFTISRDNAKNTVYLQMNSLRAEDTAMYYCAKESAGGWEQLVGPHFDYWGQGTLVIVSS
VL: QSVLTQPTSVSGSLGQRVTISCSGSTNNIGILGASWYQLFPGKAPKLLVYGNGNRPSGVPDRFSGADSGDSVTLTITGLQAEDEADYYCQSFDTTLGAHVFGGGTHLTVL
B7: can9L12VH_Y114A (antibody, V domains shown)
VH: EVQLVESGGDLVKPGGSLRLSCVASGFTFSSHGMHWVRQSPGKGLQWVAVINSGGSSTYYTDAVKGRFTISRDNAKNTVYLQMNSLRAEDTAMYYCAKESVGGWEQLVGPHFDAWGQGTLVIVSS
VL: QSVLTQPTSVSGSLGQRVTISCSGSTNNIGILGASWYQLFPGKAPKLLVYGNGNRPSGVPDRFSGADSGDSVTLTITGLQAEDEADYYCQSFDTTLGAHVFGGGTHLTVL
B8: can9L12VL_G33A (antibody, V domains shown)
VH: EVQLVESGGDLVKPGGSLRLSCVASGFTFSSHGMHWVRQSPGKGLQWVAVINSGGSSTYYTDAVKGRFTISRDNAKNTVYLQMNSLRAEDTAMYYCAKESVGGWEQLVGPHFDYWGQGTLVIVSS
VL: QSVLTQPTSVSGSLGQRVTISCSGSTNNIGILAASWYQLFPGKAPKLLVYGNGNRPSGVPDRFSGADSGDSVTLTITGLQAEDEADYYCQSFDTTLGAHVFGGGTHLTVL
B9: can9L12VL_G51A (antibody, V domains shown)
VH: EVQLVESGGDLVKPGGSLRLSCVASGFTFSSHGMHWVRQSPGKGLQWVAVINSGGSSTYYTDAVKGRFTISRDNAKNTVYLQMNSLRAEDTAMYYCAKESVGGWEQLVGPHFDYWGQGTLVIVSS
VL: QSVLTQPTSVSGSLGQRVTISCSGSTNNIGILGASWYQLFPGKAPKLLVYANGNRPSGVPDRFSGADSGDSVTLTITGLQAEDEADYYCQSFDTTLGAHVFGGGTHLTVL
B10: can9L12VH_W104A (antibody, V domains shown)
VH: EVQLVESGGDLVKPGGSLRLSCVASGFTFSSHGMHWVRQSPGKGLQWVAVINSGGSSTYYTDAVKGRFTISRDNAKNTVYLQMNSLRAEDTAMYYCAKESVGGAEQLVGPHFDYWGQGTLVIVSS
VL: QSVLTQPTSVSGSLGQRVTISCSGSTNNIGILGASWYQLFPGKAPKLLVYGNGNRPSGVPDRFSGADSGDSVTLTITGLQAEDEADYYCQSFDTTLGAHVFGGGTHLTVL
B11: can9L12VL_H99A (antibody, V domains shown)
VH: EVQLVESGGDLVKPGGSLRLSCVASGFTFSSHGMHWVRQSPGKGLQWVAVINSGGSSTYYTDAVKGRFTISRDNAKNTVYLQMNSLRAEDTAMYYCAKESVGGWEQLVGPHFDYWGQGTLVIVSS
VL: QSVLTQPTSVSGSLGQRVTISCSGSTNNIGILGASWYQLFPGKAPKLLVYGNGNRPSGVPDRFSGADSGDSVTLTITGLQAEDEADYYCQSFDTTLGAAVFGGGTHLTVL
B12: can9L12VL_G30A (antibody, V domains shown)
VH: EVQLVESGGDLVKPGGSLRLSCVASGFTFSSHGMHWVRQSPGKGLQWVAVINSGGSSTYYTDAVKGRFTISRDNAKNTVYLQMNSLRAEDTAMYYCAKESVGGWEQLVGPHFDYWGQGTLVIVSS
VL: QSVLTQPTSVSGSLGQRVTISCSGSTNNIAILGASWYQLFPGKAPKLLVYGNGNRPSGVPDRFSGADSGDSVTLTITGLQAEDEADYYCQSFDTTLGAHVFGGGTHLTVL
B13: can9L12VH_T58A (antibody, V domains shown)
VH: EVQLVESGGDLVKPGGSLRLSCVASGFTFSSHGMHWVRQSPGKGLQWVAVINSGGSSAYYTDAVKGRFTISRDNAKNTVYLQMNSLRAEDTAMYYCAKESVGGWEQLVGPHFDYWGQGTLVIVSS
VL: QSVLTQPTSVSGSLGQRVTISCSGSTNNIGILGASWYQLFPGKAPKLLVYGNGNRPSGVPDRFSGADSGDSVTLTITGLQAEDEADYYCQSFDTTLGAHVFGGGTHLTVL
B14: can9L12VL_G53A (antibody, V domains shown)
VH: EVQLVESGGDLVKPGGSLRLSCVASGFTFSSHGMHWVRQSPGKGLQWVAVINSGGSSTYYTDAVKGRFTISRDNAKNTVYLQMNSLRAEDTAMYYCAKESVGGWEQLVGPHFDYWGQGTLVIVSS
VL: QSVLTQPTSVSGSLGQRVTISCSGSTNNIGILGASWYQLFPGKAPKLLVYGNANRPSGVPDRFSGADSGDSVTLTITGLQAEDEADYYCQSFDTTLGAHVFGGGTHLTVL

What was measured:
Test in all cases: SPR (Biacore T200), 100 nM mAb on NGF chip, similarity to parent mAb
[1] = biological target: T1, human NGF (human, UniProt P01138 122-241)
T1 construct: also called human Nerve Growth Factor; hN
T1 chain: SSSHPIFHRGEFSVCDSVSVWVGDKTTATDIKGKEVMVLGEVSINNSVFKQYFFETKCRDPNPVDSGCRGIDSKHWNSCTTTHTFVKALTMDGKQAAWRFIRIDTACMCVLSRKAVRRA
Excerpt: (§1) The region of an antibody responsible for antigen recognition represents the paratope. A paratope is created by a combination of amino acids in the complementarity determining regions (CDRs) of both the heavy and light chain variable regions. The binding between antibody and antigen is often mediated by side chains of CDR residues with side chains or carbohydrate moieties of the antigen. To help define critical side chains involved in antibody recognition alanine scanning mutagenesis was performed on each CDR residue in both the heavy and light chain, the technique as described by Cunningham and Wells (1989) Science, Vol. 244, Issue 4908, pp. 1081-1085. These mutants were then individually tested for the ability to NGF using the Biacore. […] Values were then compared to the wild type antibodies and are represented in the tables as a percent of wild type binding. The data presented in Tables 4 and 5 below are shown as a “percent similarity score” compared to wild type.
(§2) The mean response unit of four replicates of the parent mAb+/−3 standard deviations was used to generate parameters to define a threshold of response units comprising both the on- and off-rates antibody binding. The percentage of data points for each mutant fell within this threshold was then used to define a “% similarity score”. […] Results from substitution of alanine at each CDR position

[2] = biological target: T2, rat NGF (rat, UniProt P25427 122-241)
T2 construct: also called rN
T2 sequence (P25427 122-241 limits assumed): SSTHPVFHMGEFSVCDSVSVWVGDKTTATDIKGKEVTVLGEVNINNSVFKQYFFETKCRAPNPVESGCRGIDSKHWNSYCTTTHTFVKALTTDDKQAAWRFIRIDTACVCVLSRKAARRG
Excerpt: as §1, §2

[3] = biological target: T3, canine NGF (canine, UniProt Q29074 110-229 (pig entry), limits assumed)
T3 construct: The protein was secreted from CHO cells and purified; also called cNGF; canine β-NGF
T3 chain: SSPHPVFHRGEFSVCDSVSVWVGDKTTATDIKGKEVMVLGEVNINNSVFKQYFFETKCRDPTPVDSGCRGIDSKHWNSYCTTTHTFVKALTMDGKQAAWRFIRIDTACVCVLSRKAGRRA
Excerpt: as §1, §2

Binder | Percent Similarity Score (KD on hN) [1] [%] | Percent Similarity Score (KD on rN) [2] [%] | Percent Similarity Score (KD on cN) [3] [%]
B1 | 96.6 | 100 | 100
B2 | 3.3 | 3.7 | 11
B3 | 2.7 | 2.3 | 7.2
B4 | 56.3 | 62 | 93.2
B5 | 43.3 | 35.9 | 98.9
B6 | 5.29 | 4.27 | 13.6
B7 | 99.9 | 99.2 | 100
B8 | 2.3 | 2.9 | 7.5
B9 | 100 | 99.9 | 100
B10 | 5.2 | 8.2 | 19.2
B11 | 56.9 | 43.7 | 100
B12 | 16.2 | 13.8 | 53.9
B13 | 100 | 99.9 | 100
B14 | 10 | 11.7 | 34.2
